Results: paper PMC11952669 (Research Square, 2025)

B1: R.nor ACE2 ectodomain (residues 1–741), dimeric (receptor)
chain: QSLIEEKAESFLNKFNQEAEDLSYQSSLASWNYNTNITEENAQKMNEAAAKWSAFYEEQSKIAQNFSLQEIQNATIKRQLKALQQSGSSALSPDKNKQLNTILNTMSTIYSTGKVCNSMNPQECFLLEPGLDEIMATSTDYNRRLWAWEGWRAEVGKQLRPLYEEYVVLKNEMARANNYEDYGDYWRGDYEAEGVEGYNYNRNQLIEDVENTFKEIKPLYEQLHAYVRTKLMEVYPSYISPTGCLPAHLLGDMWGRFWTNLYPLTTPFLQKPNIDVTDAMVNQSWDAERIFKEAEKFFVSVGLPQMTPGFWTNSMLTEPGDDRKVVCHPTAWDLGHGDFRIKMCTKVTMDNFLTAHHEMGHIQYDMAYAKQPFLLRNGANEGFHEAVGEIMSLSAATPKHLKSIGLLPSNFQEDNETEINFLLKQALTIVGTLPFTYMLEKWRWMVFQDKIPREQWTKKWWEMKREIVGVVEPLPHDETYCDPASLFHVSNDYSFIRYYTRTIYQFQFQEALCQAAKHDGPLHKCDISNSTEAGQKLLNMLSLGNSGPWTLALENVVGSRNMDVKPLLNYFQPLFVWLKEQNRNSTVGWSTDWSPYADQSIKVRISLKSALGKNAYEWTDNEMYLFRSSVAYAMREYFSREKNQTVPFGEADVWVSDLKPRVSFNFFVTSPKNVSDIIPRSEVEEAIRMSRGRINDIFGLNDNSLEFLGIYPTLKPPYEPPVTI
notes: also called soluble dimeric R.nor ACE2; R.nor (Rodent) ACE2; source: Expi293F, purified (Ni Sepharose, Superose-6 gel filtration)

Assays:
[1] = molecular target: Biotinylated VsCoV-a7 RBD (residues 356–556) (bat MERSr-CoV VsCoV-a7 (from Vespertilio sinensis)); experiment: BLI
cryo-EM structure = molecular target: the molecule itself; experiment: cryo-EM structure

Row | Molecule | Kd [1] [nM] | binding result (cryo-EM structure)
1 | E.fus ACE2 ectodomain (residues 1–747), dimeric (receptor) | 816 | 
2 | B1 |  | binds
